In paper PMC11178655, “Dosimetry and pharmacokinetics of [^177Lu]Lu-satoreotide tetraxetan in patients with progressive neuroendocrine tumours” (European Journal of Nuclear Medicine and Molecular Imaging, 2024):
Where a SMILES comes first, the peptide text is derived from it. Bridges are numbered along the chain shown (N, C = ends). [ ]: non-standard residue; d: D form. The star is where a group is joined. DOTA = O=C(O)CN1CCN(CC(=O)O)CCN(CC(=O)*)CCN(CC(=O)O)CC1; dPhe(4-NHCONH2) = NC(=O)Nc1ccc(C[C@@H](N)C(=O)O)cc1; Dihydroorotyl(S) = O=C1C[C@@H](C(=O)*)NC(=O)N1; Phe(4-Cl) = N[C@@H](Cc1ccc(Cl)cc1)C(=O)O; Phe(4-NH2) = Nc1ccc(C[C@H](N)C(=O)O)cc1

System: patients with progressive, SSTR-positive NETs
Assay: Patient-specific image-based dosimetry (NUKDOS) of tumours and organs, phase I/II trial
Type: in vivo, human
Details: median (range)
Experimental: In both parts A and B of the study, patients underwent planar whole-body imaging at 4 h and 1, 2, 3, and 6 days after each [^177Lu]Lu-satoreotide tetraxetan treatment cycle. Patients in part A also underwent single-photon emission computed tomography/computed tomography (SPECT/CT) at 24 h after each [^177Lu]Lu-satoreotide tetraxetan cycle. Those in part B underwent SPECT/CT, immediately before or after planar scintigraphy, at 4 h, and 1, 2, 3, and 6 days after each [^177Lu]Lu-satoreotide tetraxetan administration. Full details of the image acquisition methodology are provided in the Supplementary Information.
Delineation of tumour volumes was performed on anatomical SPECT/CT images after each [^177Lu]Lu-satoreotide tetraxetan administration. Tumours with a longest diameter < 2 cm were not analysed due to the difficulty in correcting for partial volume effects caused by the limited spatial resolution of the SPECT/CT systems. For study inclusion in part A, one tumour lesion ≥ 2 cm must have been present for eligibility; in part B, two or more tumour lesions ≥ 2 cm must have been present, each with an uptake on SSTR imaging higher than that of normal liver parenchyma (target lesion on [^68Ga]Ga-DOTA-TATE or -DOTA-TOC positron emission tomography: maximum standardised uptake value [SUVmax] ≥ 2x the mean SUV [SUVmean] of liver background; or ^111In-scintigraphy/SPECT: Krenning score 3 or 4 [uptake > normal liver, or uptake > spleen or kidneys, respectively [26]]).
Reconstruction parameters were set up to produce isotropic voxels of < 5 mm; voxels were continuous throughout the field of view. Anatomic coverage of the acquisition was determined according to the patients’ tumour locations on the planar whole-body scan acquisition with liver, both kidneys and spleen in the same bed position. For organs showing [^177Lu]Lu-satoreotide tetraxetan uptake, regions of interest (ROIs)/volumes of interest (VOIs) were drawn manually over the whole organs of interest (whole body, left and right kidneys, liver, spleen, and bone marrow), using the NUKDOS software for planar whole-body scans and the SPECT/CT acquired in part A [27]. VOIs for the same organs were drawn for all SPECT/CT images acquired in part B. All ROIs/VOIs were then used for activity quantification. Time-integrated activity coefficients (TIACs) for a given source volume were computed by integrating the time-activity curves. Full details of the tumour delineation and activity quantification methodology are provided in the Supplementary Information.
Patient-specific dosimetry calculations were performed after each treatment cycle in both parts A and B, using the absorbed dose calculation features of the NUKDOS software for image-based dosimetry calculations. The NUKDOS software was chosen as it allowed for an integral approach to organ dosimetry (including image quantification, time-activity curve-fitting and dosimetry calculation). For the bone marrow, both image-based and blood-based calculations were performed in part A [28, 29]. In part B, only image-based bone marrow dosimetry was performed. Organ Level INternal Dose Assessment/EXponential Modelling (OLINDA/EXM) version 1.0 software, the most widely used version at the time of the study, was used to perform model-based dosimetry calculations, which were only performed after the first [^177Lu]Lu-satoreotide tetraxetan cycle for patients in part B. To generate organ-specific absorbed doses, TIACs were used as input data. Full details on OLINDA/EXM software settings and organ-specific TIAC calculation methods are provided in the Supplementary Information.
All images were acquired with a 20% energy window around the main photopeak of ^177Lu (208 keV). For scatter correction, the triple-energy window method was applied based on the recommendation of the Committee on Medical Internal Radiation Dose. Whole-body images were acquired with a scanning time of 20 cm/min in a 256 × 1,024 matrix. […]

[1] = Part A (4.5 GBq, 300 µg), image-based dosimetry, n = 11
[2] = Part A (4.5 GBq, 300 µg), n = 7
[3] = Part A (4.5 GBq, 300 µg), n = 9
[4] = Part A (4.5 GBq, 300 µg), n = 11
[5] = Part A (4.5 GBq/cycle), image-based dosimetry, n = 10
[6] = Part A (4.5 GBq/cycle), n/n-les 9/16
[7] = Part A and B, image-based dosimetry, n = 21
[8] = Part B Cohort 1 (6.0 GBq, reduced to 4.5 GBq after three patients; 300 µg), n = 6
[9] = Part B Cohort 1, image-based dosimetry, n = 1
[10] = Part B Cohort 3 (4.5 GBq, 300 µg), n = 9

C[C@@H](O)[C@@H]1NC(=O)[C@H](CCCCN)NC(=O)[C@@H](Cc2ccc(NC(N)=O)cc2)NC(=O)[C@H](Cc2ccc(NC(=O)[C@@H]3CC(=O)NC(=O)N3)cc2)NC(=O)[C@H](NC(=O)[C@H](Cc2ccc(Cl)cc2)NC(=O)CN2CCN(CC(=O)O)CCN(CC(=O)O)CCN(CC(=O)O)CC2)CSSC[C@@H](C(=O)N[C@H](Cc2ccc(O)cc2)C(N)=O)NC1=O [[^177Lu]Lu-satoreotide tetraxetan, metal not drawn] ({DOTA}-[Phe(4-Cl)][dC][Phe(4-NH2)](Dihydroorotyl(S))[dPhe(4-NHCONH2)]KTC[dY]-NH2; disulfide 2-7 (inferred); C-terminus assumed)
Cycle 1 ADC, Bone marrow [1]: 0.1 (0.0–0.2) Gy/GBq | Cycle 3 ADC, Bone marrow [1]: 0.1 (0.0–0.2) Gy/GBq | Cycle 1 ADC, Liver [2]: 0.2 (0.1–0.3) Gy/GBq | Cycle 3 ADC, Liver [2]: 0.2 (0.1–0.4) Gy/GBq | Cycle 1 ADC, Spleen [3]: 0.8 (0.2–1.8) Gy/GBq | Cycle 3 ADC, Spleen [3]: 0.5 (0.3–1.0) Gy/GBq | Cycle 1 ADC, Kidneys [4]: 1.1 (0.5–1.9) Gy/GBq | Cycle 1 ADC, Tumours [4]: 2.6 (0.4–14.3) Gy/GBq | Cycle 3 ADC, Kidneys [4]: 1.0 (0.7–1.8) Gy/GBq | Cycle 3 ADC, Tumours [4]: 1.7 (0.3–5.0) Gy/GBq | Ratio of ADCs Cycle 2/Cycle 1 (300 vs. 300 µg), Bone marrow [5]: 89.5 (54.7–152) % | Ratio of ADCs Cycle2/Cycle 3 (300 vs. 300 µg), Bone marrow [5]: 109 (23.9–297) % | Ratio of ADCs Cycle 2/Cycle 1 (300 vs. 300 µg), Spleen (Part A (4.5 GBq/cycle), n = 9): 93.0 (50.0–270) % | Ratio of ADCs Cycle2/Cycle 3 (300 vs. 300 µg), Spleen (Part A (4.5 GBq/cycle), n = 9): 127 (81.1–334) % | Ratio of ADCs Cycle 2/Cycle 1 (300 vs. 300 µg), Body (Part A (4.5 GBq/cycle), n = 11): 108 (38.3–142) % | Ratio of ADCs Cycle 2/Cycle 1 (300 vs. 300 µg), Kidney (Part A (4.5 GBq/cycle), n = 11): 116 (55.8–140) % | Ratio of ADCs Cycle2/Cycle 3 (300 vs. 300 µg), Body (Part A (4.5 GBq/cycle), n = 11): 95.4 (69.5–119) % | Ratio of ADCs Cycle2/Cycle 3 (300 vs. 300 µg), Kidney (Part A (4.5 GBq/cycle), n = 11): 101 (80.6–179) % | Ratio of ADCs Cycle 2/Cycle 1 (300 vs. 300 µg), Liver lesions [6]: 91.8 (28.6–156) % | Ratio of ADCs Cycle2/Cycle 3 (300 vs. 300 µg), Liver lesions [6]: 127 (73.3–343) % | Ratio of ADCs Cycle2/Cycle 3 (300 vs. 300 µg), All lesions (Part A (4.5 GBq/cycle), n/n-les 11/23): 125 (73.3–343) % | Ratio of ADCs Cycle 2/Cycle 1 (300 vs. 300 µg), All lesions (Part A (4.5 GBq/cycle), n/n-les 11/24): 83.4 (28.6–156) % | Cycle 3 ADC, Bone marrow [7]: 0.1 (0.0–0.2) Gy/GBq | Ratio of Cycle 3/ Cycle 1 ADCs, Bone marrow [7]: 105 (22.4–400) % | Cycle 1 ADC, Bone marrow (Part A and B, image-based dosimetry, n = 29): 0.1 (0.0–0.6) Gy/GBq | Ratio of Cycle 3/ Cycle 1 ADCs, Liver (Part A and B, n = 7): 88.5 (43.8–132) % | Ratio of Cycle 3/ Cycle 1 ADCs, Spleen (Part A and B, n = 18): 83.2 (40.9–231) % | Ratio of Cycle 3/ Cycle 1 ADCs, Tumours (Part A and B, n = 23): 78.6 (16.0–195) % | Ratio of Cycle 3/ Cycle 1 ADCs, Kidneys (Part A and B, n = 25): 98.6 (59.1–198) % | Cycle 3 ADC, Liver (Part A and B, patient-specific dosimetry, n = 7): 0.2 (0.1–0.4) Gy/GBq | Cycle 1 ADC, Liver (Part A and B, patient-specific dosimetry, n = 8): 0.2 (0.1–0.3) Gy/GBq | Cycle 3 ADC, Spleen (Part A and B, patient-specific dosimetry, n = 19): 0.7 (0.3–1.5) Gy/GBq | Cycle 3 ADC, Tumours (Part A and B, patient-specific dosimetry, n = 24): 4.0 (0.3–70.3) Gy/GBq | Cycle 3 ADC, Kidneys (Part A and B, patient-specific dosimetry, n = 26): 0.8 (0.4–1.8) Gy/GBq | Cycle 1 ADC, Spleen (Part A and B, patient-specific dosimetry, n = 27): 0.8 (0.2–1.8) Gy/GBq | Cycle 1 ADC, Tumours (Part A and B, patient-specific dosimetry, n = 33): 5.0 (0.4–83.3) Gy/GBq | Cycle 1 ADC, Kidneys (Part A and B, patient-specific dosimetry, n = 35): 0.9 (0.4–1.9) Gy/GBq | Ratio of Cycle 3/ Cycle 1 ADCs, Bone marrow (Part A, image-based dosimetry, n = 11): 101 (22.4–302) % | Ratio of Cycle 3/ Cycle 1 ADCs, Liver (Part A, n = 7): 88.5 (43.8–132) % | Ratio of Cycle 3/ Cycle 1 ADCs, Spleen (Part A, n = 9): 61.5 (40.9–231) % | Ratio of Cycle 3/ Cycle 1 ADCs, Kidneys (Part A, n = 11): 106 (59.1–139) % | Ratio of Cycle 3/ Cycle 1 ADCs, Tumours (Part A, n = 11): 76.7 (16.0–195) % | Cycle 1 ADC, Bone marrow (Part B Cohort 1 (6.0 GBq, reduced to 4.5 GBq after three patients; 300 µg), image-based dosimetry, n = 6): 0.1 (0.1–0.6) Gy/GBq | Cycle 1 ADC, Liver (Part B Cohort 1 (6.0 GBq, reduced to 4.5 GBq after three patients; 300 µg), n = 1): 0.2 (0.2–0.2) Gy/GBq | Cycle 1 ADC, Tumours (Part B Cohort 1 (6.0 GBq, reduced to 4.5 GBq after three patients; 300 µg), n = 5): 3.9 (1.9–83.3) Gy/GBq | Cycle 1 ADC, Kidneys [8]: 0.7 (0.6–1.0) Gy/GBq | Cycle 1 ADC, Spleen [8]: 1.0 (0.5–1.1) Gy/GBq | Cycle 3 ADC, Bone marrow [9]: 0.1 (0.1–0.1) Gy/GBq | Ratio of Cycle 3/ Cycle 1 ADCs, Bone marrow [9]: 64.3 (64.3–64.3) % | Cycle 3 ADC, Kidneys (Part B Cohort 1, n = 1): 0.7 (0.7–0.7) Gy/GBq | Cycle 3 ADC, Spleen (Part B Cohort 1, n = 1): 0.5 (0.5–0.5) Gy/GBq | Ratio of Cycle 3/ Cycle 1 ADCs, Kidneys (Part B Cohort 1, n = 1): 111 (111–111) % | Ratio of Cycle 3/ Cycle 1 ADCs, Spleen (Part B Cohort 1, n = 1): 82.3 (82.3–82.3) % | Cycle 1 ADC, Bone marrow (Part B Cohort 3 (4.5 GBq, 300 µg), image-based dosimetry, n = 6): 0.1 (0.1–0.1) Gy/GBq | Cycle 1 ADC, Spleen (Part B Cohort 3 (4.5 GBq, 300 µg), n = 6): 1.0 (0.2–1.5) Gy/GBq | Cycle 1 ADC, Kidneys [10]: 0.9 (0.5–1.2) Gy/GBq | Cycle 1 ADC, Tumours [10]: 6.8 (2.1–28.2) Gy/GBq | Cycle 3 ADC, Bone marrow (Part B Cohort 3 (4.5 GBq, 300 µg; 700 µg at cycle 2), image-based dosimetry, n = 6): 0.1 (0.0–0.1) Gy/GBq | Cycle 3 ADC, Spleen (Part B Cohort 3 (4.5 GBq, 300 µg; 700 µg at cycle 2), n = 5): 0.8 (0.3–1.1) Gy/GBq
